From paper PMC9249340 (FEBS Open Bio, 2022)
Substitutions are numbered along the chain they refer to. In names and notes the source's numbering stands.

B1: GDAP1Δ295‐358 wild type (domain or fragment, human, UniProt Q8TB36 1-294, looked up)
chain: MAERQEEQRGSPPLRAEGKADAEVKLILYHWTHSFSSQKVRLVIAEKALKCEEHDVSLPLSEHNEPWFMRLNSTGEVPVLIHGENIICEATQIIDYLEQTFLDERTPRLMPDKESMYYPRVQHYRELLDSLPMDAYTHGCILHPELTVDSMIPAYATTRIRSQIGNTESELKKLAEENPDLQEAYIAKQKRLKSKLLDHDNVKYLKKILDELEKVLDQVETELQRRNEETPEEGQQPWLCGESFTLADVSLAVTLHRLKFLGFARRNWGNGKRPNLETYYERVLKRKTFNKVLG
notes: GDAP1, human; printed as GDAP1Δ295-358 (residues 295-358 deleted); also called wtGDAP1Δ295‐358; GDAPΔ295‐358; source: E. coli BL21(DE3), purified (Ni-NTA, TEV cleavage, second Ni-NTA, SEC on Superdex 200); not shown: His6, N-terminal, cleaved
B2: GDAP1Δ303‐358 R120W (domain or fragment, human, UniProt Q8TB36 1-302, looked up)
chain: MAERQEEQRGSPPLRAEGKADAEVKLILYHWTHSFSSQKVRLVIAEKALKCEEHDVSLPLSEHNEPWFMRLNSTGEVPVLIHGENIICEATQIIDYLEQTFLDERTPRLMPDKESMYYPWVQHYRELLDSLPMDAYTHGCILHPELTVDSMIPAYATTRIRSQIGNTESELKKLAEENPDLQEAYIAKQKRLKSKLLDHDNVKYLKKILDELEKVLDQVETELQRRNEETPEEGQQPWLCGESFTLADVSLAVTLHRLKFLGFARRNWGNGKRPNLETYYERVLKRKTFNKVLGHVNNILIS
notes: GDAP1, human; printed as GDAP1Δ303-358 (residues 303-358 deleted) with the CMT2K-linked mutation R120W; Disease mutation that occurs in patients; also called R120W GDAP1; GDAP1∆303‐358 R120W; source: E. coli BL21(DE3), purified (Ni-NTA, TEV cleavage, second Ni-NTA, SEC); not shown: His6, N-terminal, cleaved
B3: GDAP1Δ303‐358 H123R (domain or fragment, human, UniProt Q8TB36 1-302, looked up)
chain: B2 chain with W120R, H123R
notes: GDAP1, human; printed as GDAP1Δ303-358 (residues 303-358 deleted) with the Finnish founder CMT2K mutation H123R; Disease mutation that occurs in patients; also called H123R GDAP1; GDAP1∆303‐358 H123R; source: E. coli BL21(DE3), purified (Ni-NTA, TEV cleavage, second Ni-NTA, SEC); not shown: His6, N-terminal, cleaved

Legend:
[1] = target: the molecule itself; experiment: crystal structure; wild-type GDAP1Δ295-358, new crystal form, +8 °C, 200 mM NH4 formate, 25% PEG3350, 8.64 mg/mL protein
[2] = target: the molecule itself; experiment: SEC-SAXS; 50 µL at 8.5-10 mg/mL on a BioSEC3-300 column, 25 mM HEPES pH 7.5, 300 mM NaCl, +15 °C; monomer to dimer

| Protein | binding result [1] | stoichiometry N [2] |
| --- | --- | --- |
| B1 | binds | – |
| B2 | – | 2 |
| B3 | – | 2 |
